± gives the uncertainty stated by the source.
Experiment: protein stability index of a GFP-peptide fusion (yeast GPS) (PSI 1-4); higher = more stable; sorted into four equal gates, so the index is relative within each strain
In short: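 Peptides tiling yeast proteins in 17-residue segments were fused downstream of GFP, with Cherry expressed from the same plasmid. As a pooled library in yeast, mid-log cultures grown in leucine-free medium were sorted into four equal gates by GFP/Cherry fluorescence ratio. Gate plasmids were PCR-amplified and Illumina-sequenced, and barcodes linked reads to strains. Each peptide received a protein stability index equal to the sum of each gate's read frequency times its gate number.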

Row | Sequence | protein stability index (doa10∆) | protein stability index (pdr5∆) | protein stability index (ubr1∆) | protein stability index (san1∆)
1 | SLSYMAFPNASKKNRPT [RRP40] | 2.2 ± 0.22 | 2.89 ± 0.15 | 2.9 ± 0.14 | –
2 | SHSLALNEITNSKVNKL [DSN1] | 2.33 ± 0.04 | 2.57 ± 0.04 | 2.54 ± 0.033 | 2.48 ± 0.035
3 | MIATNVAARGLDIPNVS [PRP28] | 2.58 ± 0.17 | – | – | 2.2 ± 0.16
4 | PKFFLGEENRVRFIGDS [QCR2] | 3.17 ± 0.1 | 3.15 ± 0.11 | 3.2 ± 0.069 | 3.07 ± 0.073
5 | AKGVYRPNGRKDHDLKI [POP1] | 2.88 ± 0.078 | 3.08 ± 0.052 | 3.03 ± 0.061 | 2.93 ± 0.049
6 | QQENSKSGKRKPNIILD [RPC31] | 2.83 ± 0.099 | 2.83 ± 0.086 | 2.79 ± 0.076 | 2.64 ± 0.089
7 | EPDLESQISKAEMEADS [SMC4] | 2.89 ± 0.078 | 3.39 ± 0.18 | 2.55 ± 0.17 | 3.43 ± 0.069
8 | QVYDLLKRFPKMSVTCN [BRR2] | – | 1.09 ± 0.13 | – | –
9 | IYNSTDSNSEILNFLNQ [YML103C/NUP188] | 3.1 ± 0.2 | 2.72 ± 0.067 | 2.9 ± 0.076 | 2.71 ± 0.055
10 | VSIKFTNAAFPFHDPEA [ECM29] | 2.3 ± 0.053 | 2.11 ± 0.053 | 1.83 ± 0.047 | 1.91 ± 0.068
11 | FHNAVFNSFRRFKSQFL [QCR8] | 2.31 ± 0.068 | 1.52 ± 0.046 | 1.54 ± 0.046 | 1.6 ± 0.088
12 | QSNEDTFLPSYMKFSNK [RRI2] | 2.84 ± 0.063 | 3.05 ± 0.063 | 3.18 ± 0.048 | 3.17 ± 0.052
13 | VTLLANVRALYMRLWEI [RMP1] | 1.57 ± 0.21 | – | – | –
14 | TESLRVENSVLIEKVDD [YIL149C/MLP2] | 2.48 ± 0.17 | 2.98 ± 0.22 | 2.79 ± 0.074 | 2.63 ± 0.14
15 | MVLEATVLVIDNSEYSR [RPN10] | 1.79 ± 0.097 | 1.72 ± 0.12 | 2.2 ± 0.046 | 1.85 ± 0.12
16 | SEQKMKEDADLKRMEIL [SIR4] | 2.99 ± 0.066 | 3.34 ± 0.11 | 3.28 ± 0.073 | 3.49 ± 0.059
17 | AWRTLVGVSHTNEEVRN [CYT1] | – | 2.98 ± 0.13 | 2.18 ± 0.094 | 1.92 ± 0.15
18 | NHKIIARVKAFDRHCNM [SMD2] | 1.7 ± 0.07 | 1.72 ± 0.08 | 1.93 ± 0.058 | 2.1 ± 0.086
19 | KNVRTRIKLATTSERVS [RRI1] | 2.6 ± 0.058 | 2.56 ± 0.058 | 2.36 ± 0.074 | 2.8 ± 0.086
20 | KAELIKPIQNGEIIDIS [ARP9] | 3.31 ± 0.087 | 3.02 ± 0.1 | 2.92 ± 0.092 | 3.33 ± 0.067
21 | DHKRFIVFHNEFSEHTF [DIS3] | 2.55 ± 0.042 | 2.92 ± 0.048 | 3.02 ± 0.038 | 2.85 ± 0.046
22 | NMEIRNLRLKILTIIEE [GRR1] | 1.62 ± 0.065 | 1.53 ± 0.049 | 1.33 ± 0.046 | 1.83 ± 0.078
23 | FNIISMTLKEMYQMITM [SMC4] | 1.92 ± 0.074 | 1.97 ± 0.054 | 2.15 ± 0.042 | 2.22 ± 0.075
24 | HGGKMKPEIDENGTLLV [RPR2] | 3.16 ± 0.078 | 3.14 ± 0.11 | 2.97 ± 0.047 | 3.05 ± 0.075
25 | SNKPIFLFAPELGAINL [SWI1] | 2.23 ± 0.062 | 1.91 ± 0.051 | 2.11 ± 0.046 | 2.08 ± 0.089
26 | NSNTTNQNSSTGAGAFG [YJL041W/NSP1] | 3.04 ± 0.053 | 3.07 ± 0.074 | 2.96 ± 0.05 | 3.03 ± 0.051
27 | APVEVQEDFEVVEEFTP [RPS5] | 3.31 ± 0.076 | 3.21 ± 0.08 | 2.94 ± 0.062 | 3.02 ± 0.049

Row | Sequence | protein stability index (doa10∆) | protein stability index (pdr5∆) | protein stability index (ubr1∆) | protein stability index (san1∆)
28 | GKLGQIDYALTAVKQGV [PRE8] | 1.36 ± 0.21 | 1.93 ± 0.13 | 2.54 ± 0.099 | –
29 | RNRGKIHSGVLSSIESD [YMR153W/NUP53] | 2.93 ± 0.1 | 2.96 ± 0.12 | 2.94 ± 0.087 | 3.13 ± 0.066
30 | KLSKILPRYQELTKEEA [SMC3] | 3.16 ± 0.11 | 3.34 ± 0.094 | 3.35 ± 0.1 | 3.34 ± 0.086
31 | EIKDAETSCDNYHPMNI [SMC4] | 2.64 ± 0.057 | 2.83 ± 0.055 | 2.98 ± 0.044 | 3.15 ± 0.043
32 | LTLIFYDVLHDVFTINP [YML103C/NUP188] | 1.7 ± 0.071 | 2.09 ± 0.051 | 2.55 ± 0.054 | 2.3 ± 0.071
33 | SEEINQYVTQIEQEKQE [PRE6] | 2.68 ± 0.075 | 1.76 ± 0.063 | 2.62 ± 0.086 | 2.59 ± 0.085
34 | NWIKPSDSEIPPLLVYK [PRP8] | 2.16 ± 0.065 | 2.24 ± 0.056 | 2.12 ± 0.063 | 2.21 ± 0.075
35 | PNFTGIDKLMLSPSDQF [SSN2] | 1.39 ± 0.08 | 1.33 ± 0.068 | 1.61 ± 0.067 | –
36 | RLMMNSKVGSADTGRDD [RPN11] | 3.39 ± 0.085 | 3.36 ± 0.068 | 3.52 ± 0.07 | 3.51 ± 0.058
37 | NFEYDLSEYDAIQKKDN [YOR098C/NUP1] | 2.9 ± 0.2 | 3.23 ± 0.13 | 3.23 ± 0.064 | 2.15 ± 0.26
38 | ELRFPSPTPIQRITIPN [PRP28] | 2.02 ± 0.093 | 2.19 ± 0.071 | 2.06 ± 0.058 | 1.85 ± 0.081
39 | KTITSGLKYALATGNWG [RPB2] | 2.32 ± 0.066 | 2.33 ± 0.056 | 2.31 ± 0.048 | 2.19 ± 0.079
40 | RCMMAAQYFYSGAYSYP [DIS3] | 2.14 ± 0.12 | 2.31 ± 0.11 | 2.12 ± 0.11 | 1.81 ± 0.2
41 | PRPSYSSRPNVNTTRRF [YMR129W/POM152] | 2.89 ± 0.099 | 2.97 ± 0.096 | 2.82 ± 0.067 | 2.92 ± 0.074
42 | HFENAKVIDLDTKLKAH [YIL149C/MLP2] | 2.62 ± 0.073 | 2.73 ± 0.086 | 2.48 ± 0.073 | 2.09 ± 0.11
43 | APNNSNGGSEEEITCAL [MED7] | 3.45 ± 0.094 | 3.45 ± 0.13 | 3.31 ± 0.085 | 3.42 ± 0.095
44 | NVFTPEISSQIEILVKD [RRI2] | 1.65 ± 0.1 | 2.02 ± 0.12 | 1.3 ± 0.066 | 2.65 ± 0.15
45 | ESKDSIQDLIVKLKQQK [SMC3] | 3.35 ± 0.1 | 3.12 ± 0.13 | 3.35 ± 0.15 | 3.09 ± 0.14
46 | DLKEGLQDLSRYSRQFI [GRR1] | 3.07 ± 0.062 | 2.24 ± 0.058 | 3.29 ± 0.035 | 3.02 ± 0.038
47 | ALAFCEIGITQQRIVSA [RRP4] | 1.71 ± 0.11 | 2.31 ± 0.11 | 2.25 ± 0.075 | 1.92 ± 0.23
48 | EEIVSNSSRFSDPMLQR [YCS4] | 3.07 ± 0.096 | 2.95 ± 0.082 | 3.07 ± 0.056 | 3.28 ± 0.096
49 | TLGNQMLSAHNIIESIA [YJR042W/NUP85] | 2.33 ± 0.097 | 2.58 ± 0.073 | 2.79 ± 0.072 | 2.53 ± 0.14
50 | CGAWEPAITIEKLKQFS [SIR3] | 1.97 ± 0.087 | 1.76 ± 0.079 | 1.54 ± 0.072 | 2.58 ± 0.13
51 | PKLKRIGLVKCTQMTDE [GRR1] | 2.95 ± 0.073 | 2.89 ± 0.076 | 2.86 ± 0.047 | 2.81 ± 0.057
52 | QDSIDISIKDNKLVMKS [GAL11] | 2.5 ± 0.064 | 2.77 ± 0.058 | 2.05 ± 0.068 | 3.21 ± 0.053
53 | VELTYSLNNSDSLISGV [BRR2] | 2.73 ± 0.12 | 2.98 ± 0.085 | 3.12 ± 0.051 | 3.14 ± 0.088
54 | TLDVEAFKSVVSTETFE [RPL27A] | 2.4 ± 0.069 | 2.74 ± 0.051 | 2.46 ± 0.053 | 2.59 ± 0.051

Source: the supplement of paper PMC9732359
